The series deals with the molecule itself. Briefly: thioflavin-T fluorescence.

B1: TDP-43-low complexity domain (LCD) (aa: 274-414) (domain or fragment, UniProt Q13148 274-414, looked up)
chain: GRFGGNPGGFGNQGGFGNSRGGGAGLGNNQGSNMGGGMNFGAFSINPAMMAAAQAALQSSWGMMGMLASQQNQSGPSGNNQNQGNMQREPNQAFGSGNNSYSGSNSGAAIGWGSASNAGSGSGFNGGFGSSMDSKSSGWGM
As for B1, the binding result is “binds”.

The values are drawn from doi:10.1101/2024.11.23.624964 (bioRxiv, 2024).
